Measured values: the supplement of paper PMC10567573

B1: P2RY14 (parent)
chain: KKIFKSHLKSSRNSTSVKKKSSRN

Variants of: B1
Experiment: protein stability index of a GFP-peptide fusion (GPS, HEK-293T) (PSI 1-6); higher = more stable
Conditions: c terminus: a fixed tail appended
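Also: lentivirally expressed fusions sorted by FACS into six bins by GFP to DsRed ratio, PSI derived from sequencing read proportions per bin multiplied by bin number.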

Protein stability index: each site, then its substitutions
K9: D 4.05 | C 4.37 | M 4 | L 4.05 | P 4.47 | Q 4.04 | T 3.98 | I 3.7 | H 4.41 | S 3.87 | W 3.21 | F 3.57 | E 4.51 | N 4.5 | Y 3.67 | V 3.39 | A 4.07 | G 4.01 | R 4.27
S14: K 4.07 | Q 3.69 | R 4.36 | L 3.88 | T 4.33 | N 4.44 | C 4.31 | V 3.84 | D 4.14 | F 3.84 | P 4.43 | E 4.35 | Y 4.1 | H 4.35 | I 4.14 | G 4.22 | A 3.5 | M 3.98 | W 3.44
I3: Q 4.14 | Y 4.39 | G 4.28 | P 4.38 | V 4.04 | K 4.18 | S 4.6 | R 4.44 | D 4.95 | L 4.23 | N 4.63 | A 4.18 | M 4.77 | F 3.91 | H 4.34 | T 4.66 | E 5.07 | W 3.79 | C 4.27
F4: N 4.49 | Q 4.71 | L 4 | H 4.07 | Y 3.67 | C 4.27 | D 4.6 | G 4.56 | R 4.48 | K 4.47 | E 4.45 | T 4 | P 4.58 | I 4.3 | W 3.96 | S 4.72 | V 4.39 | A 4.49 | M 4.28
K2: A 3.91 | Y 3.67 | G 4.12 | N 4.13 | F 3.63 | D 4.66 | R 3.88 | V 3.73 | I 3.35 | S 4.37 | M 3.53 | W 3.12 | E 4.29 | L 3.2 | C 3.88 | Q 4.04 | H 4.01 | T 4.3 | P 3.98
K1: S 4.26 | Q 4.25 | G 4.51 | W 2.7 | L 3.18 | F 3.8 | R 3.42 | E 3.97 | I 2.88 | N 4.4 | Y 3.58 | V 3.5 | T 4 | M 3.43 | H 4.63 | P 4.22
L8: G 4.49 | I 4.16 | W 3.95 | C 4.39 | A 4.56 | H 4.05 | E 4.43 | V 4.14 | S 5.01 | M 4.11 | N 4.31 | T 4.3 | R 4.14 | P 4.33 | D 4.58 | K 4.29 | Q 3.49 | F 4.04 | Y 3.59
S10: K 4.15 | T 4.17 | G 3.81 | L 4.02 | C 4.03 | Q 3.83 | A 4.08 | E 4 | R 4.18 | F 3.38 | D 4.41 | N 4.33 | I 3.59 | W 3.46 | V 3.81 | P 4.24 | Y 3.54 | H 4.14 | M 4.01
S6: K 4.33 | R 4.49 | Y 3.34 | W 3.26 | P 3.69 | H 3.9 | I 3.5 | Q 4.07 | T 4.11 | F 3.34 | L 3.18 | E 4.36 | G 4.18 | N 4.57 | V 3.79 | C 4.06 | A 3.68 | M 3.82 | D 4.62
S16: L 4.14 | C 3.38 | G 4.1 | Q 4.48 | H 4.45 | E 4.13 | A 4.16 | T 4.22 | I 3.84 | Y 4.28 | W 3.69 | N 4.26 | K 4.07 | R 4.22 | F 3.57 | P 4.26 | M 4.35 | D 4.08 | V 3.82
S11: G 4.26 | M 3.62 | L 4.12 | K 3.89 | W 3.36 | F 3.69 | I 3.98 | V 4.31 | P 4.3 | Y 3.37 | T 4.22 | N 3.96 | D 4.33 | C 3.93 | E 4.35 | Q 4.31 | A 3.93 | R 4.44 | H 4.67
K5: V 3.93 | N 4.33 | M 3.95 | L 3.76 | S 4.2 | T 4.06 | I 3.55 | W 3.45 | P 4.18 | H 4.33 | E 3.89 | A 4.33 | C 4.05 | Q 4.27 | G 4.44 | Y 3.48 | F 4.01 | D 4.16 | R 3.67
H7: A 3.79 | M 3.79 | W 3.3 | N 4 | V 3.93 | I 3.72 | Y 3.38 | T 4.41 | R 4.28 | L 3.7 | S 4.15 | Q 3.67 | P 3.74 | C 4.05 | K 4.39 | D 4.36 | F 3.76 | G 4.27 | E 4.41
V17: I 3.59 | M 4.12 | W 3.6 | N 4.21 | Y 3.99 | L 4.02 | Q 4.06 | T 4.41 | S 4.03 | P 4.09 | D 4.25 | H 4.1 | A 4.29 | C 4.17 | K 4.02 | R 4.49 | G 3.73 | E 3.99 | F 3.97
N13: L 3.3 | Q 4.2 | W 3.41 | C 3.74 | Y 3.6 | H 3.52 | K 3.95 | F 3.77 | P 3.45 | E 3.55 | G 4.11 | M 3.64 | T 4.5 | I 4.15 | A 4.12 | D 3.68 | S 4.89 | R 4.38 | V 4.22
R12: V 4.45 | Y 3.39 | T 4.37 | E 4.08 | P 4.15 | A 4.17 | M 4.03 | D 4.43 | N 4.17 | I 3.8 | S 3.94 | K 4.03 | F 3.83 | L 4.11 | W 3.74 | C 3.6 | Q 4.16 | H 3.93 | G 3.87
K18: I 3.7 | H 4.07 | D 3.98 | G 3.99 | E 3.98 | N 4.27 | Q 3.67 | L 3.86 | M 4.1 | P 4.29 | R 3.88 | C 3.34 | A 3.8 | F 3.54
T15: N 4.45 | I 4.04 | D 4.28 | V 3.55 | Q 4.09 | Y 3.6 | F 3.52 | M 4.01 | L 3.98 | H 4.01 | W 3.46 | S 4.16 | K 3.84 | A 4.27 | E 4.35 | R 4.05 | G 4.31 | P 4.28 | C 3.63
